# Test results: ChEMBL document CHEMBL1268867, “ATPases as drug targets: insights from heat shock proteins 70 and 90” (J Med Chem, 2010)
# Legend:
# [1] = substrate: Nc1ncnc2c1ncn2[C@@H]1O[C@H](COP(=O)(O)OP(=O)(O)OP(=O)(O)O)[C@@H](O)[C@H]1O; test: Binding affinity to CHK1
# [2] = substrate: Nc1ncnc2c1ncn2[C@@H]1O[C@H](COP(=O)(O)OP(=O)(O)OP(=O)(O)O)[C@@H](O)[C@H]1O; test: Binding affinity to Akt2
# [3] = substrate: Nc1ncnc2c1ncn2[C@@H]1O[C@H](COP(=O)(O)OP(=O)(O)OP(=O)(O)O)[C@@H](O)[C@H]1O; test: Binding affinity to aurora B
protein,measurement,setting,value
"Serine/threonine-protein kinase Chk1 (Homo sapiens), O14757 (protein) MAVPFVEDWDLVQTLGEGAYGEVQLAVNRVTEEAVAVKIVDMKRAVDCPENIKKEICINKMLNHENVVKFYGHRREGNIQYLFLEYCSGGELFDRIEPDIGMPEPDAQRFFHQLMAGVVYLHGIGITHRDIKPENLLLDERDNLKISDFGLATVFRYNNRERLLNKMCGTLPYVAPELLKRREFHAEPVDVWSCGIVLTAMLAGELPWDQPSDSCQEYSDWKEKKTYLNPWKKIDSAPLALLHKILVENPSARITIPDIKKDRWYNKPLKKGAKRPRVTSGGVSESPSGFSKHIQSNLDFSPVNSASSEENVKYSSSQPEPRTGLSLWDTSPSYIDKLVQGISFSQPTCPDHMLLNSQLLGTPGSSQNPWQRLVKRMTRFFTKLDADKSYQCLKETCEKLGYQWKKSCMNQVTISTTDRRNNKLIFKVNLLEMDDKILVDFRLSKGDGLEFKRHFLKIKGKLIDIVSSQKIWLPAT",Km,[1],1.4 µM
"RAC-beta serine/threonine-protein kinase (Homo sapiens), P31751 (protein) MNEVSVIKEGWLHKRGEYIKTWRPRYFLLKSDGSFIGYKERPEAPDQTLPPLNNFSVAECQLMKTERPRPNTFVIRCLQWTTVIERTFHVDSPDEREEWMRAIQMVANSLKQRAPGEDPMDYKCGSPSDSSTTEEMEVAVSKARAKVTMNDFDYLKLLGKGTFGKVILVREKATGRYYAMKILRKEVIIAKDEVAHTVTESRVLQNTRHPFLTALKYAFQTHDRLCFVMEYANGGELFFHLSRERVFTEERARFYGAEIVSALEYLHSRDVVYRDIKLENLMLDKDGHIKITDFGLCKEGISDGATMKTFCGTPEYLAPEVLEDNDYGRAVDWWGLGVVMYEMMCGRLPFYNQDHERLFELILMEEIRFPRTLSPEAKSLLAGLLKKDPKQRLGGGPSDAKEVMEHRFFLSINWQDVVQKKLLPPFKPQVTSEVDTRYFDDEFTAQSITITPPDRYDSLGLLELDQRTHFPQFSYSASIRE",Km,[2],254 µM
"Aurora kinase B (Homo sapiens), Q96GD4 (protein) MAQKENSYPWPYGRQTAPSGLSTLPQRVLRKEPVTPSALVLMSRSNVQPTAAPGQKVMENSSGTPDILTRHFTIDDFEIGRPLGKGKFGNVYLAREKKSHFIVALKVLFKSQIEKEGVEHQLRREIEIQAHLHHPNILRLYNYFYDRRRIYLILEYAPRGELYKELQKSCTFDEQRTATIMEELADALMYCHGKKVIHRDIKPENLLLGLKGELKIADFGWSVHAPSLRRKTMCGTLDYLPPEMIEGRMHNEKVDLWCIGVLCYELLVGNPPFESASHNETYRRIVKVDLKFPASVPMGAQDLISKLLRHNPSERLPLAQVSAHPWVRANSRRVLPPSALQSVA",Km,[3],34 µM
